From publication PMC4377080, “Probing Bunyavirus N protein oligomerisation using mass spectrometry” (Rapid Communications in Mass Spectrometry, 2014) come the findings set out here.

In data set [1] the target is T1, BUNV-N nucleocapsid protein (Bunyamwera virus, UniProt P16495 1-233). The experiment in a line: native nanoESI-MS; N:RNA 6:1, low population; 50 mM ammonium acetate, pH 6.8 (stated for RNA-free BUNV-N); 10 uM final N protein (monomer basis); temperature not given. The settings on record: protein: recombinant; tags: His6-SUMO, removed.
Data set [2] concerns the target T2, SBV-N nucleocapsid protein (Schmallenberg virus, UniProt H2AM13 1-233).
T2 sequence: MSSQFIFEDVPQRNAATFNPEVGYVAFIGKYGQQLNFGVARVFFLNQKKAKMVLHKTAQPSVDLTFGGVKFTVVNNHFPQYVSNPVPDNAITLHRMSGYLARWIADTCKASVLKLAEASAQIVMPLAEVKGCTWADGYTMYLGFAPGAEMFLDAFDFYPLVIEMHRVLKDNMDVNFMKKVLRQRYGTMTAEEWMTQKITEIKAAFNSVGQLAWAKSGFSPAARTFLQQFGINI
The data set is described as follows: native nanoESI-MS; N:RNA 4:1 and 5:1 (equal major), 6:1, 8:1; 50 mM ammonium acetate, pH 6.8 (stated for RNA-free BUNV-N); 10 uM final N protein (monomer basis); temperature not given. The settings on record: protein: recombinant; tags: His6-SUMO, removed; chain copies: 4.

Data set [3] deals with T2, SBV-N nucleocapsid protein. The experiment in a line: native nanoESI-MS; N:RNA 3:1, 4:1 (major), 4:2, 5:2; 50 mM ammonium acetate, pH 6.8 (stated for RNA-free BUNV-N); 10 uM final N protein (monomer basis); temperature not given. The settings on record: protein: recombinant; tags: His6-SUMO, removed; chain copies: 4.
Data set [4] deals with T1, BUNV-N nucleocapsid protein. The experiment in a line: native nanoESI-MS; N:RNA 5:1; 50 mM ammonium acetate, pH 6.8 (stated for RNA-free BUNV-N); 10 uM final N protein (monomer basis); temperature not given. The settings on record: protein: recombinant; tags: His6-SUMO, removed.
For data set [5] the target is unchanged. The data set is described as follows: native nanoESI-MS; N:RNA 3:2, 3:3, 4:4 (3:3 and 4:4 major); mixed at 2:1; 50 mM ammonium acetate, pH 6.8 (stated for RNA-free BUNV-N); 10 uM final N protein (monomer basis); temperature not given. The conditions noted are these: protein: recombinant; tags: His6-SUMO, removed.
Data set [6] addresses T2, SBV-N nucleocapsid protein. The data set is described as follows: native nanoESI-MS; N:RNA 4:4 (major), 8:8, 10:10, 12:12; 50 mM ammonium acetate, pH 6.8 (stated for RNA-free BUNV-N); 10 uM final N protein (monomer basis); temperature not given. The settings on record: protein: recombinant; tags: His6-SUMO, removed; chain copies: 4.
Data set [7] deals with the molecule itself. The data set is described as follows: native MS; nano-ESI-MS of RNA-free N protein (10 μM monomer) incubated with synthetic 12-mer RNA; 2:1 N/RNA molar ratio for BUNV-N.
Data set [8] concerns the molecule itself. The data set is described as follows: native MS; nano-ESI-MS of RNA-free N protein (10 μM monomer) incubated with synthetic 24-mer RNA.
Data set [9] deals with the molecule itself. The experiment in a line: native MS; nano-ESI-MS of BUNV-N bound to endogenous E. coli RNA (as purified; traces also left after the RNA-removal step); ammonium acetate buffer pH 6.8.
Data set [10] concerns the molecule itself. The experiment in a line: native MS; nano-ESI-MS of RNA-free N protein (10 μM monomer) incubated with synthetic 48-mer RNA.
Data set [11] deals with the molecule itself. The experiment in a line: native MS; nano-ESI-MS of RNA-free N protein (10 μM monomer) incubated with synthetic 60-mer RNA.
Data set [12] has as its target T1, BUNV-N nucleocapsid protein. The data set is described as follows: native nanoESI-MS, CID MS/MS; N:RNA 3:1, 4:2 (major), 5:2, 6:3; 4:2 also in mixture with SBV-N; 50 mM ammonium acetate, pH 6.8 (stated for RNA-free BUNV-N); 10 uM final N protein (monomer basis); temperature not given. The settings on record: protein: recombinant; tags: His6-SUMO, removed.
The target of data set [13] is T2, SBV-N nucleocapsid protein. The experiment in a line: native nanoESI-MS, CID MS/MS; N:RNA 4:2, 5:2; 4:2 also in mixture with BUNV-N; 50 mM ammonium acetate, pH 6.8 (stated for RNA-free BUNV-N); 10 uM final N protein (monomer basis); temperature not given. The conditions noted are these: protein: recombinant; tags: His6-SUMO, removed; chain copies: 4.

Several values for one entry are separate records, joined by “and”; a condition that tells them apart may be missing. Identical values can stand only once.

B1: 60-mer RNA (ssRNA)
RNA: AGUAGUGUACUCCACACUACAAACUUGCUAUUGUUGAAAAUCGCUGUGCUAUUAAAUCCA
For B1, the binding result in data set [1] and in [2] was “binds” each time.

B2: 48-mer RNA (ssRNA)
RNA: AGUAGUGUACUCCACACUACAAACUUGCUAUUGUUGAAAAUCGCUGUG
As to B2, the binding result in data set [3] and in data set [4] was “binds” each time.

B3: 12-mer RNA (ssRNA)
RNA: AGUAGUGUACUC
With B3, the binding result in data set [5] and in data set [6] was “binds” throughout.

B4: Bunyamwera virus nucleocapsid (N) protein (natural protein)
chain: MIELEFHDVAANTSSTFDPEVAYANFKRVHTTGLSYDHIRIFYIKGREIKTSLAKRSEWEVTLNLGGWKITVYNTNFPGNRNNPVPDDGLTLHRLSGFLARYLLEKMLKVSEPEKLIIKSKIINPLAEKNGITWNDGEEVYLSFFPGSEMFLGTFRFYPLAIGIYKVQRKEMEPKYLEKTMRQRYMGLEAATWTVSKLTEVQSALTVVSSLGWKKTNVSAAARDFLAKFGINM
notes: Nucleocapsid (N) protein of Bunyamwera virus (BUNV); As purified it carries E. coli RNA (tetramer with about 44 nt); the RNA-free form is obtained by high salt treatment; also called BUNV-N; BUNVN; source: tag removed; endogenous RNA removed with high ionic strength buffers where stated
Turning to B4, the stoichiometry N (commonly the number of molecules, sites or subunits per partner or assembly) in data set [7] is 3; in data set [8], 5 and 6; in data set [9], 4.

B5: Schmallenberg virus nucleocapsid (N) protein (natural protein)
chain: T2 sequence
notes: Nucleocapsid (N) protein of Schmallenberg virus (SBV); measured monomer mass 26 269 Da; also called SBV-N; SBVN; source: tag removed; high salt-treated
For the molecule B5, the “stoichiometry N” value is 3 in data set [10]; 4 and 8 and 10 and 12 in data set [7]; 6 in data set [11]; 5 in data set [8].

B6: 24-mer RNA (ssRNA)
RNA: AGUAGUGUACUCCACACUACAAAC
For B6, the binding result in [12] and in data set [13] was “binds” in each case.
